The values below come from patent US20250027068.

B1: PRT-358 (protein)
chain: MSQTEDSESLQRLRDIEDFQAEKKDQNVVYTKWLDGVDVKDHDFRKIVDGNIAYYATPLLNGRGWYDINKDFNRDSDKCAAAVAANMFHYWLDRNRDNVDRFLRQNPEKHGIIELPDGQLKLSDFLNTYESDDGYRDKSKLFDFISENFNGPVWTDKLLDNYINGYAYNYKYGRTIEDPTKNTSKINFFKEVFNEKILTNNHSIRNQNEFSVLLIEALYTGKAIGLSYGPAGLRHSLGHIISVWGADLDADGNVVAIYVTDSDDKKLTIGDERVGLKRYKISTDDEGRLRLTAYEETHNTGGQVRGLWTLDTGKQAWADYFDKTEQTGTDQAEQ
B2: PRT-352 (protein)
chain: MSQTEDSESLQRLRDIEDFQAEKKMQNVVYTKWLDGVDVKDHDFRKIVDGNSAYYATPLLNGRGFYDINKDFNRDSDKCAAAVAANMFHYWLDINRDNVDRFLRQNPEKHGIIELPDGQLKLSDFLNTYESDHGYRDKSKLFDFISENFNGPVWTDKLLDNYINGYAYNSKYGRTIEDPTKNTSKINFFKEVFNEKILTNNHSIRNQNEFSVLLIEALYTGKAIGLSYGPAGLRHGLGHIISVWGADLDADGNVVAIYVTDSDDKKLTIGDERVGLKRYKISTDDENRLRLTAYEETHNTGGQIRGLWTLDTGKYAWADYFDKTEQTGTDQAEQ
B3: PRT-351 (protein)
chain: MSQTEDSESLQRLRDIEDFQAEKKMQNVVYTKWLDGVDVKDHDFRKIVDGNSAYYATPLLNGRGFYDINKDFNRDSDKCAAAVAANMFHYWLDINRDNVDRFLRQNPEKHGIIELPDGQLKLSDFLNTYESDHGYRDKSKLFDFISENFNGPVWTDKLLDNYINGYAYNYKYGRTIEDPTKNTSKINFFKEVFNEKILTNNHSIRNQNEFSVLLIEALYTGKAIGLSYGPAGLRHSLGHIISVWGADLDADGNVVAIYVTDSDDKKLTIGDERVGLKRYKISTDDENRLRLTAYEETHNTGGQIRGLWTLDTGKYAWADYFDKTEQTGTDQAEQ
B4: PRT-368 (protein)
chain: MSQTEDSESLQRLRDIEDFQAEKKDQNVVYTKWLDGVDVKDHDFRKIVDGNIAYYATPLLNGRGWYDINKDFNRDNDKCAAAVAANMFHYWLDRNRDNVDRFLRQNPEKHGIIELPDGQLKLSDFLNTYESDDGYRDKSKLFDFISENFNGPVWTDKLLDNYINGYAYNYKYGRTIEDSTKNTSKINFFKEVFNEKILTNNHSIRNQNEFSVLLIEALYTGKAIGLSYGPAGLRHSLGHIISVWGADLDADGNVVAIYVTDSDDKKLTIGDERVGLKRYKISTDDEGRLRLTAYEETHNTGGQVRGLWTLDTGKQAWADYFDKTEQTGTDQAEQ
B5: PRT-360 (protein)
chain: MSQTEDSESLQRLRDIEDFQAEKKDQNVVYTKWLDGVDVKDHDFRKIVDGNSAYYATPLLNGRGWYDINKDFNRDSDKCAAAVAANMFHYWLDRNRDNVDRFLRQNPEKHGIIELPDGQLKLSDFLNTYESDDGYRDKSKLFDFISENFNGPVWTDKLLDNYINGYAYNYKYGRTIEDPTKNTSKINFFKEVFNEKILTNNHSIRNQNEFSVLLIEALYTGKAIGLSYGPAGLRHSLGHIISVWGADLDADGNVVAIYVTDSDDKKLTIGDERVGLKRYKISTDDEGRLRLTAYEETHNTGGQVRGLWTLDTGKQAWADYFDKTEQTGTDQAEQ
B6: PRT-359 (protein)
chain: MSQTEDSESLQRLRDIEDFQAEKKDQNVVYTKWLDGVDVKDHDFRKIVDGNIAYYATPLLNGRGLYDINKDFNRDSDKCAAAVAANMFHYWLDRNRDNVDRFLRQNPEKHGIIELPDGQLKLSDFLNTYESDDGYRDKSKLFDFISENFNGPVWTDKLLDNYINGYAYNYKYGRTIEDPTKNTSKINFFKEVFNEKILTNNHSIRNQNELSVLLSEALYTGKAIGLSYGPAGLRHSLGHIISVWGADLDADGNVVAIYVTDSDDKKLTIGDERVGLKRYKISTDDEGRLRLTAYEETHNTGGQVRGLWTLDTGKQAWADYFDKTEQTGTDQAEQ
B7: PRT-366 (protein)
chain: MSQTEDSESLQRLRDIEDFQAEKEKQNVVYTKWLDGVDVKDHDFRKIVDGNSAYYATPLLNGRGFYDINKDFNRDNDKCAAAVAANMFHYWLDRNRDNVDRFLRQNPEKHGIIELPDGQLKLSDFLNTYESDDGYRDKSKLFDFISNNFNGPVWTDKLLDNYINGYAYNYKYGRTIEDSTKNTSKINFFKEVFNEKILTNNHSIRNQNEFSVLLSEALYTGKAIGLSYGPAGLRHSLGHIISVWGADLDADGNVVAIYVTDSDDKKLTIGDERVGLKRYKISTDDEGRLRLTAYEETHNTGGQVRGLWTLDTGKQAWADYFDKTEQTGTDQAEQ
B8: PRT-367 (protein)
chain: MSQTEDSESLQRLRDIEDFQAEKEKQNVVYTKWLDGVDVKDHDFRKIVDGNSAYYATPLLNGRGWYDINKDFNRDNDKCAAAVAANMFHYWLDRNRDNVDRFLRQNPEKHGIIELPDGQLKLSDFLNTYESDDGYRDKSKLFDFISNNFNGPVWTDKLLDNYINGYAYNYKYGRTIEDSTKNTSKINFFKEVFNEKILTNNHSIRNQNEFSVLLSEALYTGKAIGLSYGPAGLRHSLGHIISVWGADLDADGNVVAIYVTDSDDKKLTIGDERVGLKRYKISTDDEGRLRLTAYEETHNTGGQVRGLWTLDTGKQAWADYFDKTEQTGTDQAEQ
B9: PRT-335 (protein)
chain: MTITSVWTKGVTPPTPEDFRENNEDVLHAPYVANQGWYDITKTFDGKDNLLCGAATAGNMLHWWFDQNKEEIERYLKKHPEKQKIIFGNQELFDVKAAIDTKDSQTNSKLFDYFRDKAFPGLSARQLGVFPDLVLDMFINGYYLNLGKTQSTDVNRPYQDKDKRGGIFDAVFTRGVQTTLLTARHDLKNKGLNEISDLIKQELTEGKALALSHTYANVRINHVINLWGADFDAEGELIAIYVTDSDANPSIGMKKYFVGRNANGKVAISAKKIEGDNIGAQVLGLFTLSTGQDQWQKLS
B10: PRT-344 (protein)
chain: MTITSVWTKGVTPPTPEDFRENNEDVLHAPYLANQGWYDITKAFDGKDNLLCGAATAGNMLHWWFDQNKEEIERYLKKHPEKQKIIFGNQELFDVKAAIDTKDSQTNSKLFDYFRDKAFPNLSARQLGVMPDLVLDMFINGYYLNLGKTQSTDVNRPYQDKDKRGGIFDAVFTRGDQTTLLTARHDLKNKGLNEISDLIKQELTEGKALALSHTYANVSINHVINLWGADFDAEGELEAIYVTDSDANPSIGMKKYFVGRNAHGKVAISAKKIEGDNIGAQVLGLFTLSTGQDQWQKLS
B11: PRT-343 (protein)
chain: MTITSVWTKGVTPPTPEDFRENNEDVLHAPYLANQGWYDITKAFDGKDNLLCGAATAGNMLHWWFDQNKEEIERYLKKHPEKQKIIFGNQELFDVKAAIDTKDSQTNSKLFDYFRDKAFPNLSARQLGVMPDLVLDMFINGYYLNLGKTQSTDVNRPYQDKDKRGGIFDAVFTRGDQTTLLTARHDLKNKGLNEISDLIKQELTEGKALALSHTYANVSINHVINLWGADFDAEGELEAIYVTDSDANPSIGMKKYFVGRNAHGKVAISAKKIEGDNIGAQVLGLFTLSTGQDIWQKLS
B12: PRT-336 (protein)
chain: MTITSVWTKGVTPPTPEDFRENNEDVLHAPYVANQGWYDITKTFDGKDNLLCGAATAGNMLHWWFDQNKEEIERYLKKHPEKQKIIFNNQELFDVKAAIDTKDSQTNSKLFDYFRDKAFPGLSARQLGVFPDLVLDMFINGYYLNLGKTQSTDVNRPYQDKDKRGGIFDAVFTRGVQTTLLTARHDLKNKGLNEISDLIKQELTEGKALALSHTYANVRINHVINLWGADFDAEGELIAIYVTDSDANPSIGMKKYFVGRNANGKVAISAKKIEGDNIGAQVLGLFTLSTGQDIWQKLS
B13: PRT-337 (protein)
chain: MTITSVWTKGVTPPTPEDFRKNNEDVLHAPYLANQGWYDITKAFDGKDNLLCGAATAGNMLHWWFDQNKEEIERYLKKHPEKQKIIFNNQELFDVKAAIDTKDSQTNSKLFNYFRDKAFPNLSARQLGVMPDLVLDMFINGYYLNLGKTQSTDVNRPYQDKDKRGGIFDAVFTRGDQTTLLTARHDLKNKGLNEISDLIKQELTEGKALALSHTYANVSINHVINLWGADFDAEGNLEAIYVTDSDANASIGMKKYFVGRNAHGKVAISAKKIEGDNIGAQVLGLFTLSTGQDIWQKLS

This series deals with pooled human IgG (human IgG1,2,3 and 4).
Consider B1, for which the Enzyme Activity Endpoint Assay (purified): Fab'2 is 8 ng/µL, the Enzyme Activity Endpoint Assay (purified): Fc is 90 ng/µL, the Enzyme Activity Endpoint Assay (purified): IgG amounted to 86 ng/µL and the Enzyme Activity Endpoint Assay (purified): scIgG turned out to be 375 ng/µL.
B2 had an Enzyme Activity Endpoint Assay (purified): Fab′2 of 229 ng/µL, an Enzyme Activity Endpoint Assay (purified): Fc of 302 ng/µL, an Enzyme Activity Endpoint Assay (purified): IgG of 281 ng/µL and an Enzyme Activity Endpoint Assay (purified): scIgG of 599 ng/µL.
B3 returned an Enzyme Activity Endpoint Assay (purified): Fab'2 of 37 ng/µL, an Enzyme Activity Endpoint Assay (purified): Fc of 191 ng/µL, an Enzyme Activity Endpoint Assay (purified): IgG of 86 ng/µL and an Enzyme Activity Endpoint Assay (purified): scIgG of 638 ng/µL.
The protein B4 gave an Enzyme Activity Endpoint Assay (purified): Fab′2 of 0 ng/µL, an Enzyme Activity Endpoint Assay (purified): Fc of 3 ng/µL, an Enzyme Activity Endpoint Assay (purified): IgG of 0 ng/µL and an Enzyme Activity Endpoint Assay (purified): scIgG of 0 ng/µL.
B5 yielded an Enzyme Activity Endpoint Assay (purified): Fab′2 of 89 ng/µL, an Enzyme Activity Endpoint Assay (purified): Fc of 241 ng/µL, an Enzyme Activity Endpoint Assay (purified): IgG of 191 ng/µL and an Enzyme Activity Endpoint Assay (purified): scIgG of 684 ng/µL.
In turn, B6 showed an Enzyme Activity Endpoint Assay (purified): Fab'2 of 260 ng/µL, an Enzyme Activity Endpoint Assay (purified): Fc of 340 ng/µL, an Enzyme Activity Endpoint Assay (purified): IgG of 202 ng/µL and an Enzyme Activity Endpoint Assay (purified): scIgG of 677 ng/µL.
In the same order, the values of B7 are 0 ng/µL, 122 ng/µL, 777 ng/µL and 472 ng/µL.
For B8, in that order: 351 ng/µL, 361 ng/µL, 100 ng/µL and 518 ng/µL.
Take B9: the Enzyme Activity Endpoint Assay (purified): Fab'2 was determined as 38 ng/µL, the Enzyme Activity Endpoint Assay (purified): Fc was 154 ng/µL, the Enzyme Activity Endpoint Assay (purified): IgG is 74 ng/µL and the Enzyme Activity Endpoint Assay (purified): scIgG stood at 514 ng/µL.
For the protein B10, the Enzyme Activity Endpoint Assay (purified): Fab′2 came out at 562 ng/µL, the Enzyme Activity Endpoint Assay (purified): Fc was determined as 335 ng/µL, the Enzyme Activity Endpoint Assay (purified): IgG was found to be 0 ng/µL and the Enzyme Activity Endpoint Assay (purified): scIgG was 218 ng/µL.
B11 registered an Enzyme Activity Endpoint Assay (purified): Fab'2 of 154 ng/µL, an Enzyme Activity Endpoint Assay (purified): Fc of 266 ng/µL, an Enzyme Activity Endpoint Assay (purified): IgG of 129 ng/µL and an Enzyme Activity Endpoint Assay (purified): scIgG of 682 ng/µL.
In the same order, the values of B12 are 50 ng/µL, 264 ng/µL, 370 ng/µL and 965 ng/µL.
Regarding B13, the Enzyme Activity Endpoint Assay (purified): Fab′2 was found to be 0 ng/µL, the Enzyme Activity Endpoint Assay (purified): Fc is 74 ng/µL, the Enzyme Activity Endpoint Assay (purified): IgG turned out to be 38 ng/µL and the Enzyme Activity Endpoint Assay (purified): scIgG came to 259 ng/µL.
